Data published in paper PMC4933246, “Alanine Expansions Associated with Congenital Central Hypoventilation Syndrome Impair PHOX2B Homeodomain-mediated Dimerization and Nuclear Import*”.

B1: PHOX2A promoter homeodomain binding site probe (dsDNA)
DNA 1: TCAGAGCGAATTGAATTAACTTCTTCACAC
DNA 2: GTGTGAAGAAGTTAATTCAATTCGCTCTGA
B2: ATTA 2 site probe (dsDNA)
DNA 1: TAGTGTGATTGAATTAAAGGGCA
DNA 2: TGCCCTTTAATTCAATCACACTA
B3: ATTA 3-4 sites probe (dsDNA)
DNA 1: GGTGGTATTAAATTCTAATTAGAGATGCA
DNA 2: TGCATCTCTAATTAGAATTTAATACCACC
B4: PRS1 (dsDNA)
DNA 1: ATGTGTCATTAGTGCCAATTAGAGG
DNA 2: CCTCTAATTGGCACTAATGACACAT

Biological target: PHOX2B WT (HA-tagged) (human, UniProt Q99453 1-314)
Assay: EMSA; self-competition and anti-HA supershift; EMSA as previously described (refs 25, 28) with rabbit reticulocyte lysate proteins; buffer, salt, pH and temperature not given
Settings: protein: ivt; tags: N-terminal HA; label: radiolabeled

PHOX2B WT (HA-tagged), sequence (Q99453 whole entry): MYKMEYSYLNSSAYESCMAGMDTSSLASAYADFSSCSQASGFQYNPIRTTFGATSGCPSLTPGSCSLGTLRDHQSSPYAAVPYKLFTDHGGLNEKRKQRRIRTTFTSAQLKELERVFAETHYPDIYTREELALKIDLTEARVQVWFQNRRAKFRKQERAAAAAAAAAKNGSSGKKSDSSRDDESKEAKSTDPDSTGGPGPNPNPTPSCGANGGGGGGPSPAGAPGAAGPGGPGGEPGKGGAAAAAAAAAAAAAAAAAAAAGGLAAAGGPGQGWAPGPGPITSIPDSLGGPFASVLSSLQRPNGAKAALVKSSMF

Binding result, binds:
B1
B2
B3
B4
